# According to patent US20120094895A1 (MOSAMEDIX B V, published 2012):
# B1: annexin A5-T7D variant (other)
# chain: AQVLRGDVTDFPGFDERADAETLRKAMKGLGTDEESILTLLTSRSNAQRQEISAAFKTLFGRDLLDDLKSELTGKFEKLIVALMKPSRLYDAYELKHALKGAGTNEKVLTEIIASRTPEELRAIKQVYEEEYGSSLEDDVVGDTSGYYQRMLVVLLQANRDPDAGIDEAQVEQDAQALFQAGELKWGTDEEKFITIFGTRSVSHLRKVFDKYMTISGFQIEETIDRETSGNLEQLLLAVVKSIRSIPAYLAETLYYAMKGAGTDDHTLIRVMVSRSEIDLFNIRKEFRKNFATSLYSMIKGDTSGDYKKALLLLCGEDD
# modifications: fluorescein (FITC) label, site not stated
# notes: Made in E. coli and purified; also called T7D anxA5; RGD-anxA5
# Legend:
# [1] = biological target: T1, integrin αvβ3 (UniProt P06756 31-1048; P05106 27-788, limits assumed); test: flow cytometry, fluorescein labeled protein on MCF-7 and THP-1 cells
# T1 construct: whole, on cells; Endogenous on MCF-7 and THP-1 cells (human cell lines); also called integrin-receptor
# [2] = biological target: T2, integrin αvβ5 (UniProt P06756 31-1048; P18084 24-799, limits assumed); test: as above
# T2 construct: whole, on cells; Endogenous on MCF-7 and THP-1 cells (human cell lines); also called integrin-receptor
# T2 sequence (P06756 31-1048 limits assumed, chain 1 of 2): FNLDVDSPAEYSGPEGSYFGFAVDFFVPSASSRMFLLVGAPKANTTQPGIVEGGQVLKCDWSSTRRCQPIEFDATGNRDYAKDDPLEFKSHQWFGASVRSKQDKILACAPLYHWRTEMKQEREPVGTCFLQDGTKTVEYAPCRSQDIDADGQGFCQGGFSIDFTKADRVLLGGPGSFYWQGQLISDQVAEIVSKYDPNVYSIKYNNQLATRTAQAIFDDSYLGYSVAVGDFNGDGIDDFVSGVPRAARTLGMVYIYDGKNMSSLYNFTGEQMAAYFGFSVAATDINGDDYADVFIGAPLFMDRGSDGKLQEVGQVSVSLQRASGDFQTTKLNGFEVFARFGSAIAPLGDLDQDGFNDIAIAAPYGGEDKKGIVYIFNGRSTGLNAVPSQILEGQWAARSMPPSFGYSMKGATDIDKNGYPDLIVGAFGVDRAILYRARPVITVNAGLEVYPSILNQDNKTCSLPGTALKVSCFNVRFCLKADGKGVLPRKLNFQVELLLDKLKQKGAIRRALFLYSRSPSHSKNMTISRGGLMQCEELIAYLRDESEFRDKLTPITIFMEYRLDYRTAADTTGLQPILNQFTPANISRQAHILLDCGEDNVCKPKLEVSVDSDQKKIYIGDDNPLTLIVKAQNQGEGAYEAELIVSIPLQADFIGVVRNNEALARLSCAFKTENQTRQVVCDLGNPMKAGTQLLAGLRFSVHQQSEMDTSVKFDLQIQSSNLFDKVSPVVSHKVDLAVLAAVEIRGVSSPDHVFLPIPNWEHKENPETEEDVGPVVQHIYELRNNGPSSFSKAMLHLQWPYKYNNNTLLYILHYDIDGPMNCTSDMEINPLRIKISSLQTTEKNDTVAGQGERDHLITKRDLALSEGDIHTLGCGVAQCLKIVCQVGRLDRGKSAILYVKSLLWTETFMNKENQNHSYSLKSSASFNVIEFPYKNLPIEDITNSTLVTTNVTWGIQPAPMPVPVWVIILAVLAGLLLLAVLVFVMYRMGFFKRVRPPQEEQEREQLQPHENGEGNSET
# T2 sequence (P18084 24-799 limits assumed, chain 2 of 2): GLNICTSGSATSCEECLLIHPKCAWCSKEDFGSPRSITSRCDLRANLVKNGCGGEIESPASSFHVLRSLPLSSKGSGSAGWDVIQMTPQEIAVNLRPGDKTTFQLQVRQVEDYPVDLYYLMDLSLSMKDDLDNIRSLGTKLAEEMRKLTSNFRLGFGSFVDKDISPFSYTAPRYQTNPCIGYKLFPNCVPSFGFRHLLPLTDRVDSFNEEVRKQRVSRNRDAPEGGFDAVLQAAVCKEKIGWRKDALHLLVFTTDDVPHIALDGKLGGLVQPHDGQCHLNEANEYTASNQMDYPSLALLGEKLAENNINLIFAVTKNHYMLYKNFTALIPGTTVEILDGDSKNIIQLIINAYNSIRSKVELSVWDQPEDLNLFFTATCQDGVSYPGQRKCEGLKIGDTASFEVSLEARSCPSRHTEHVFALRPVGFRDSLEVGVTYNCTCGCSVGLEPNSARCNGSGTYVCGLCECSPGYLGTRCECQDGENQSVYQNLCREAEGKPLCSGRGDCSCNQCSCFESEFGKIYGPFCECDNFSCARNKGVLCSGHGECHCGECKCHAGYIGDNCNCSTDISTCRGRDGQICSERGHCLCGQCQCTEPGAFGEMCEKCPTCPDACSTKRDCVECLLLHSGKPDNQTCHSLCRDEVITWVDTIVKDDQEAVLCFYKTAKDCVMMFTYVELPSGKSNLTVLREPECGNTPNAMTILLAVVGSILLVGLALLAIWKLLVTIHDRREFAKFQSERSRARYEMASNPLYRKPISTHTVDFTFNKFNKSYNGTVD
# T1 sequence (P06756 31-1048 limits assumed, chain 1 of 2): as the sequence (P06756 31-1048 limits assumed, chain 1 of 2) above
# T1 sequence (P05106 27-788 limits assumed, chain 2 of 2): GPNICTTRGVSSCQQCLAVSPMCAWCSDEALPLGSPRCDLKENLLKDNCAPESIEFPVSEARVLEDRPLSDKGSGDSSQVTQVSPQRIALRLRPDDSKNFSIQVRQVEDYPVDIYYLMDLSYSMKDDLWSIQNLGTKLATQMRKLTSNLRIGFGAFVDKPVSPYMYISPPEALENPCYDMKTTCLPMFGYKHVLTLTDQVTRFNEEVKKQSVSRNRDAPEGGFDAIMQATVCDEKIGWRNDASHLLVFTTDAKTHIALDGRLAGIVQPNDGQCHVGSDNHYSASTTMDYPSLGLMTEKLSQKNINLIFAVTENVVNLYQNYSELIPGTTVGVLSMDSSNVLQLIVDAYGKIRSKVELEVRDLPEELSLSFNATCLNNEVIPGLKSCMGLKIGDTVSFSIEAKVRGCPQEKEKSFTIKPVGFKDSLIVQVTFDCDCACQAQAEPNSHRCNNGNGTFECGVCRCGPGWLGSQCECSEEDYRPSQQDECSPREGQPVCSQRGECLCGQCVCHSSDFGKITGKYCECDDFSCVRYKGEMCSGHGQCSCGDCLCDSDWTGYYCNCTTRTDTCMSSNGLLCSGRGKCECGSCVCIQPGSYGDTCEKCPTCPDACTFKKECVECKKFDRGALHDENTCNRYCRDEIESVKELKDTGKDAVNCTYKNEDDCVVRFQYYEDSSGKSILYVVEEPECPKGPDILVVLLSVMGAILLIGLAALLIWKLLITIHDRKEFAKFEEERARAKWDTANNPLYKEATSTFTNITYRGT
binder,measurement,setting,value
B1,binding result,[1],binds
same,binding result,[2],binds
